The target of the assay is dog street rabies virus DRV-4. As to the kind of experiment: cell-based or functional assay.

B1: plant-derived human rabies monoclonal antibody MAb^P (rabies human MAb S057 expressed in transgenic (antibody, V domains shown)
VH: QVQLVQSGAEVKKPGSSVKVSCKASGGTFNRYTVNWVRQAPGQGLEWMGGIIPIFGTANYAQRFQGRLTITADESTSTAYMELSSLRSDDTAVYFCARENLDNSGTYYYFSGWFDPWGQGTLVTVSS
VL: QSALTQPRSVSGSPGQSVTISCTGTSSDIGGYNFVSWYQQHPGKAPKLMIYDATKRPSGVPDRFSGSKSGNTASLTISGLQAEDEADYYCCSYAGDYTPGVVFGGGTKLTVLG
Consider B1, for which the Virus neutralizing antibody (VNA) titer, RFFIT is 81 IU/ml.
